# Legend:
# [1] = biological target: recombinant (His6)-tagged EGFP; experiment: size exclusion chromatography on Superdex 200, 2 mg/mL, self-association
# [2] = biological target: recombinant (His6)-tagged DsRed2; experiment: as above
# [3] = biological target: AsGFP499(S103K), recombinant his-tagged (Anemonia sulcata); experiment: as above
# [4] = biological target: AsGFP499(S103K), recombinant his-tagged (Anemonia sulcata); experiment: pseudo-native SDS-PAGE, self-association
# [5] = biological target: the molecule itself; experiment: pseudo-native SDS-PAGE, self-association
# [6] = biological target: AsGFP499(S103K/R150E), recombinant his-tagged (Anemonia sulcata); experiment: size exclusion chromatography on Superdex 200, 2 mg/mL, self-association; first peak
# [7] = biological target: AsGFP499(S103K/R150E), recombinant his-tagged (Anemonia sulcata); experiment: size exclusion chromatography on Superdex 200, 2 mg/mL, self-association; second peak
# [8] = biological target: AsGFP499(S94T/S103K/R150K/S171N/K206R), recombinant his-tagged (Anemonia sulcata); experiment: size exclusion chromatography on Superdex 200, 2 mg/mL, self-association; first peak
# [9] = biological target: AsGFP499(S94T/S103K/R150K/S171N/K206R), recombinant his-tagged (Anemonia sulcata); experiment: size exclusion chromatography on Superdex 200, 2 mg/mL, self-association; second peak
molecule,measurement,setting,value
recombinant (His6)-tagged EGFP,Apparent MW [kDa],[1],27 kDa
recombinant (His6)-tagged DsRed2,Apparent MW [kDa],[2],79 kDa
"AsGFP499(S103K), recombinant his-tagged (protein, not shown: small tags and cut ends) MYPSIKETMRVQLSMEGSVNYHAFKCTGKGEGKPYEGTQSLNITITEGGPLPFAFDILSHAFQYGIKVFAKYPKEIPDFFKQSLPGGFSWERVSTYEDGGVLKATQETSLQGDCIICKVKVLGTNFPANGPVMQKKTCGWEPSTETVIPRDGGLLLRDTPALMLADGGHLSCFMETTYKSKKEVKLPELHFHHLRMEKLNISDDWKTVEQHESVVASYSQVPSKLGHN",Apparent MW [kDa],[3],39 kDa
same,MW on pseudo-native SDS-PAGE,[4],< 50 kDa
"AsGFP499(S103K/F173E) (other, Only tested on the pseudo-native gel; reported as partly monomeric; also called AsGFP499 (S103/F173E); not shown: tag and vector-encoded residues of the bacterial expression vector) MYPSIKETMRVQLSMEGSVNYHAFKCTGKGEGKPYEGTQSLNITITEGGPLPFAFDILSHAFQYGIKVFAKYPKEIPDFFKQSLPGGFSWERVSTYEDGGVLKATQETSLQGDCIICKVKVLGTNFPANGPVMQKKTCGWEPSTETVIPRDGGLLLRDTPALMLADGGHLSCEMETTYKSKKEVKLPELHFHHLRMEKLNISDDWKTVEQHESVVASYSQVPSKLGHN",binding result,[5],binds
"AsGFP499(S103K/R150E), recombinant his-tagged (protein, not shown: small tags and cut ends) MYPSIKETMRVQLSMEGSVNYHAFKCTGKGEGKPYEGTQSLNITITEGGPLPFAFDILSHAFQYGIKVFAKYPKEIPDFFKQSLPGGFSWERVSTYEDGGVLKATQETSLQGDCIICKVKVLGTNFPANGPVMQKKTCGWEPSTETVIPEDGGLLLRDTPALMLADGGHLSCFMETTYKSKKEVKLPELHFHHLRMEKLNISDDWKTVEQHESVVASYSQVPSKLGHN",Apparent MW [kDa],[6],39 kDa
same,Apparent MW [kDa],[7],23 kDa
"AsGFP499(S94T/S103K/T159K/F173E), recombinant his-tagged (other, Reported as a monomer; not shown: (His6) tag and vector-encoded residues of pET28a(+)) MYPSIKETMRVQLSMEGSVNYHAFKCTGKGEGKPYEGTQSLNITITEGGPLPFAFDILSHAFQYGIKVFAKYPKEIPDFFKQSLPGGFSWERVTTYEDGGVLKATQETSLQGDCIICKVKVLGTNFPANGPVMQKKTCGWEPSTETVIPRDGGLLLRDKPALMLADGGHLSCEMETTYKSKKEVKLPELHFHHLRMEKLNISDDWKTVEQHESVVASYSQVPSKLGHN",binding result,[5],no binding
"AsGFP499(S94T/S103K/R150K/S171N/K206R), recombinant his-tagged (protein, not shown: small tags and cut ends) MYPSIKETMRVQLSMEGSVNYHAFKCTGKGEGKPYEGTQSLNITITEGGPLPFAFDILSHAFQYGIKVFAKYPKEIPDFFKQSLPGGFSWERVTTYEDGGVLKATQETSLQGDCIICKVKVLGTNFPANGPVMQKKTCGWEPSTETVIPKDGGLLLRDTPALMLADGGHLNCFMETTYKSKKEVKLPELHFHHLRMEKLNISDDWRTVEQHESVVASYSQVPSKLGHN",Apparent MW [kDa],[8],39 kDa
same,Apparent MW [kDa],[9],23 kDa
"AsGFP499(S103K/T159K/F173E), recombinant his-tagged (other, Reported as a monomer; not shown: (His6) tag and vector-encoded residues of pET28a(+)) MYPSIKETMRVQLSMEGSVNYHAFKCTGKGEGKPYEGTQSLNITITEGGPLPFAFDILSHAFQYGIKVFAKYPKEIPDFFKQSLPGGFSWERVSTYEDGGVLKATQETSLQGDCIICKVKVLGTNFPANGPVMQKKTCGWEPSTETVIPRDGGLLLRDKPALMLADGGHLSCEMETTYKSKKEVKLPELHFHHLRMEKLNISDDWKTVEQHESVVASYSQVPSKLGHN",binding result,[5],no binding
